Data set [1] addresses T1, CytR DNA-binding domain double mutant (DM) (UniProt P0ACN7 1-66, A29V;A48M).
T1 sequence: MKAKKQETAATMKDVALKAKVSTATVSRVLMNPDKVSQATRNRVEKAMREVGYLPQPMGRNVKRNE
Put plainly: fluorescence anisotropy. (In general: Polarisation of emitted light reports the rotation of a fluorescent probe.)

Data set [2] addresses T2, CytR DNA-binding domain wild type (UniProt P0ACN7 1-66).
T2 sequence: T1 sequence with V29A, M48A
Put plainly: fluorescence anisotropy.

Substitutions are numbered along the chain they refer to.

B1: udp half-site (udpO) (dsDNA)
DNA 1: ATTTATGCAACGCA
DNA 2: TGCGTTGCATAAAT
With B1, the binding result in data set [1] and in data set [2] was “binds” throughout.

For the origin of these results see article PMC6542653.
